Data from the supplement of paper PMC12764529.
± gives the half width of the 95% confidence interval.

Assays:
[1] = folding stability dG unfold from chymotrypsin proteolysis; higher = more stable
Method in brief: (§1)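 Mini-proteins designed to be under 80 residues and free of cysteine were carried in a PA-tagged cDNA display construct and digested with trypsin and with chymotrypsin. Each protease was applied at 11 threefold-diluted concentrations, alongside a no-protease condition, before sequencing. K50 came from Bayesian fitting of the sequencing counts, and unfolding free energy was obtained by comparing it with a sequence-predicted unfolded-state K50 and a shared folded-state K50, for each protease separately or for both together. Designs were retained only if their AlphaFold2 dimer inter-PAE exceeded 15.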

[2] = folding stability dG unfold from trypsin proteolysis; higher = more stable
Method in brief: as §1

[3] = folding stability dG unfold (combined trypsin and chymotrypsin); higher = more stable
Method in brief: as §1

Sequence: SAGGSAGGVKIEVETRTETLPDGSTRTVMRVKIELPAPPPPPPPPTRTVTETTEDGETRTTTVRSAGGSAGG [r6_778_TrROS_Hall]
- folding stability dG unfold [1]: 2.07 ± 0.066 kcal/mol
- folding stability dG unfold [2]: 0.626 ± 0.13 kcal/mol
- folding stability dG unfold [3]: 1.64 ± 0.17 kcal/mol

Sequence: SAGGSAGGVPEVVEEVAREVDPRIVTRVEVRVFEPPPEYRLVVVVVELRLPTERRFVPRVVRLRSAGGSAGG [r6_630_TrMRF]
- folding stability dG unfold [1]: 3.49 ± 0.066 kcal/mol
- folding stability dG unfold [2]: 2.85 ± 0.19 kcal/mol
- folding stability dG unfold [3]: 3.25 ± 0.31 kcal/mol

Sequence: SAGGSAGGVVPLEELAKRLGWSPEFLRELEEKGIKVELERVTPDKVVVTLTEPGTGETKTIELPSAGGSAGG [r6_969_JUSTAS]
- folding stability dG unfold [1]: 2.82 ± 0.13 kcal/mol
- folding stability dG unfold [2]: 3.19 ± 0.24 kcal/mol
- folding stability dG unfold [3]: 3.08 ± 0.17 kcal/mol

Sequence: SAGGSAGGWIEIDPETGTIEIWMPPNDIEPLVDEIAEELGWKVKVKVEPNPEGWVRHTITIPPKSAGGSAGG [r6_419_TrROS]
- folding stability dG unfold [1]: 0.281 ± 0.35 kcal/mol
- folding stability dG unfold [2]: -0.109 ± 0.087 kcal/mol
- folding stability dG unfold [3]: 0.39 ± 0.23 kcal/mol

Sequence: SAGGSAGGWIEINILVPLKPGQTPSELADEIAQEFQNQHGWEIKIDDVYPTDNYVWHKIEITPPSAGGSAGG [r6_639_TrROS]
- folding stability dG unfold [1]: 1.49 ± 0.055 kcal/mol
- folding stability dG unfold [2]: 0.864 ± 0.031 kcal/mol
- folding stability dG unfold [3]: 1.29 ± 0.083 kcal/mol

Sequence: SAGGSAGGWIIRIHFPNGHEHTFKIKSPEEAKDRIMDHHGMPPDKIPPETIKDVEIIPPDAMKESAGGSAGG [r6_588_TrROS]
- folding stability dG unfold [1]: 0.604 ± 0.12 kcal/mol
- folding stability dG unfold [2]: -0.0377 ± 0.11 kcal/mol
- folding stability dG unfold [3]: 0.434 ± 0.18 kcal/mol

Sequence: SAGGSAGGWITLDLIKELAREAMNQAQLNGMENVPIEIRWPDGWRIKIEINMNKVEVDVQPWNDSAGGSAGG [r6_270_TrROS]
- folding stability dG unfold [1]: 2.57 ± 0.079 kcal/mol
- folding stability dG unfold [2]: 1.9 ± 0.11 kcal/mol
- folding stability dG unfold [3]: 2.4 ± 0.15 kcal/mol

Sequence: SAGGSAGGWKIIEVDPKKGVVMIEMDPEEGNWYVRVPNGPIQRFDSPEEIEEKFGFPVEIYPLPSAGGSAGG [r6_753_TrROS]
- folding stability dG unfold [1]: 0.816 ± 0.092 kcal/mol
- folding stability dG unfold [2]: 1.3 ± 0.098 kcal/mol
- folding stability dG unfold [3]: 1.14 ± 0.17 kcal/mol

Sequence: SAGGSAGGYWKVEIKNGMTFSIPGMTLDEAKNHARWHGFPMPIDKIEIEPVKPPPPPPKDPDDQSAGGSAGG [r6_688_TrROS]
- folding stability dG unfold [1]: 2.95 ± 0.22 kcal/mol
- folding stability dG unfold [2]: 2.27 ± 0.14 kcal/mol
- folding stability dG unfold [3]: 2.75 ± 0.35 kcal/mol

Sequence: SAGGSAGGYWMISVKIYDPEDGKPIAQMTFMFDSPEEAERIVEEIADALPPGYRVEVDIHPIPNSAGGSAGG [r6_690_TrROS]
- folding stability dG unfold [1]: 4.99 ± 0.14 kcal/mol
- folding stability dG unfold [2]: 3.82 ± 0.12 kcal/mol
- folding stability dG unfold [3]: 4.85 ± 0.16 kcal/mol

Sequence: SAGGSAGIEERLKKLAEELGLEVKVTKVEVKVDGKEEVVVEVEVEPPPPPVEVKELSEEERKKAEESAGGSA [r15_256_TrROS_Hall]
- folding stability dG unfold [1]: 0.99 ± 0.19 kcal/mol
- folding stability dG unfold [2]: 1.27 ± 0.21 kcal/mol
- folding stability dG unfold [3]: 1.13 ± 0.23 kcal/mol

Sequence: SAGGSAGIEVHPEGTVRIEVGGRSLTVTPADAVDVTQEGDKIVVTITRRDADGTPVGTLPVTVELASAGGSA [r15_424_JUSTAS]
- folding stability dG unfold [1]: 0.835 ± 0.018 kcal/mol
- folding stability dG unfold [2]: -0.75 ± 0.088 kcal/mol
- folding stability dG unfold [3]: 0.52 ± 0.045 kcal/mol

Sequence: SAGGSAGLPEAIAEAIARELQAEPGYELDVEAEVDPETGTLHIRARVRLPDDDTWFELEITVPLPASAGGSA [r15_464_TrMRF]
- folding stability dG unfold [1]: 3.22 ± 0.12 kcal/mol
- folding stability dG unfold [2]: 1.75 ± 0.084 kcal/mol
- folding stability dG unfold [3]: 2.93 ± 0.13 kcal/mol

Sequence: SAGGSAGMDPSKVSLSISTKTYTDTATGRKVEELYFEGSGKKVTVTTLPDGTKIVTYENGVVIEVESAGGSA [r15_617_JUSTAS]
- folding stability dG unfold [1]: -0.672 ± 0.24 kcal/mol
- folding stability dG unfold [2]: 0.758 ± 0.024 kcal/mol
- folding stability dG unfold [3]: 0.314 ± 0.054 kcal/mol

Sequence: SAGGSAGMIEVEIRPTPEGGYEVLVKFYGPGGVEVEEKKYRFGSEEEAKKFLEELAKKNGYSVKIRSAGGSA [r15_242_JUSTAS]
- folding stability dG unfold [1]: 3.74 ± 0.027 kcal/mol
- folding stability dG unfold [2]: 2.11 ± 0.056 kcal/mol
- folding stability dG unfold [3]: 3.3 ± 0.067 kcal/mol

Sequence: SAGGSAGMMKVTTTPVSADTVRVTVTVPGGPFTVTVTQNGVPLLTRTVPADATLTITLPPNATVVGSAGGSA [r15_581_JUSTAS]
- folding stability dG unfold [1]: 1.94 ± 0.078 kcal/mol
- folding stability dG unfold [2]: 1.91 ± 0.098 kcal/mol
- folding stability dG unfold [3]: 1.94 ± 0.14 kcal/mol

Sequence: SAGGSAGMMPTKITVTLTLPPDAPDVEAVAERLAAELGVEVSNAEVLEVRRLPDGSREVVIELTLLSAGGSA [r15_654_JUSTAS]
- folding stability dG unfold [1]: 4.18 ± 0.094 kcal/mol
- folding stability dG unfold [2]: 4.2 ± 0.18 kcal/mol
- folding stability dG unfold [3]: 4.17 ± 0.1 kcal/mol

Sequence: SAGGSAGMNSEITLTIPVPHPRDEEGRVLPLSPEAIEKELKEKGYNVKIKEVKTSPSTITVTLKIISAGGSA [r15_225_JUSTAS]
- folding stability dG unfold [1]: 1 ± 0.082 kcal/mol
- folding stability dG unfold [2]: 0.864 ± 0.053 kcal/mol
- folding stability dG unfold [3]: 0.957 ± 0.072 kcal/mol

Sequence: SAGGSAGMPSVPVERTVTVTVVDAEGNLVGTVTLTLTFPGGVSEEEREAAIAAAIEAAVPPAGVVSSAGGSA [r15_310_JUSTAS]
- folding stability dG unfold [1]: 2.26 ± 0.059 kcal/mol
- folding stability dG unfold [2]: 2.56 ± 0.077 kcal/mol
- folding stability dG unfold [3]: 2.41 ± 0.076 kcal/mol

Sequence: SAGGSAGMSTVTVPLTVELVDPNNGNLKKVIERPLTVPAELSLDEVKEIVREEAKKEGLTIAKILLSAGGSA [r15_195_JUSTAS]
- folding stability dG unfold [1]: -0.0556 ± 0.092 kcal/mol
- folding stability dG unfold [2]: -0.122 ± 0.21 kcal/mol
- folding stability dG unfold [3]: 0.00724 ± 0.13 kcal/mol

Sequence: SAGGSAGMVLVRTPDGEVLLLPFTSPEEAEEALERLTGGRLVSVRLEGTPGDRLLLVAEVERPPGGSAGGSA [r15_447_TrMRF]
- folding stability dG unfold [1]: 2.16 ± 0.059 kcal/mol
- folding stability dG unfold [2]: 1.88 ± 0.045 kcal/mol
- folding stability dG unfold [3]: 2.06 ± 0.11 kcal/mol

Sequence: SAGGSAGMVVEVREFEIEPDEDKKIKATLERYETPEGPRYVLTIEDPSKNEKKSYPLEPGVDFKKLSAGGSA [r15_75_JUSTAS]
- folding stability dG unfold [1]: 0.681 ± 0.14 kcal/mol
- folding stability dG unfold [2]: -0.0245 ± 0.26 kcal/mol
- folding stability dG unfold [3]: 0.488 ± 0.2 kcal/mol

Sequence: SAGGSAGPLPNEKVEVTLTIPLNVLVLDEDGEPLTPEEIARRVRELFSDVSVTLEPGDRLVITLTESAGGSA [r15_645_TrMRF]
- folding stability dG unfold [1]: 1.7 ± 0.022 kcal/mol
- folding stability dG unfold [2]: 2.006 ± 0.015 kcal/mol
- folding stability dG unfold [3]: 1.85 ± 0.049 kcal/mol

Sequence: SAGGSAGRSRPLRLRFENPENGLRTEVELRVFEIGDYRVILLRERTYHPDTPGLSERDLLILLPPESAGGSA [r15_960_TrMRF]
- folding stability dG unfold [1]: 3.508 ± 0.023 kcal/mol
- folding stability dG unfold [2]: 3.03 ± 0.058 kcal/mol
- folding stability dG unfold [3]: 3.35 ± 0.1 kcal/mol

Sequence: SAGGSAGSMSEIEGLTVLEEREEPDPATGTTVPTLVVRDPEKGELYVITATTDPATGKPTYSFDLVSAGGSA [r15_170_JUSTAS]
- folding stability dG unfold [1]: 0.0106 ± 0.072 kcal/mol
- folding stability dG unfold [2]: 0.871 ± 0.03 kcal/mol
- folding stability dG unfold [3]: 0.595 ± 0.047 kcal/mol

Sequence: SAGGSAGSYLVRVRIRRPEDGKELADAVFEVPPDEPVTAEAILKELGIPPEEAKNIEIEVEVFELGSAGGSA [r15_665_TrMRF]
- folding stability dG unfold [1]: 3.05 ± 0.031 kcal/mol
- folding stability dG unfold [2]: 2.26 ± 0.049 kcal/mol
- folding stability dG unfold [3]: 2.75 ± 0.061 kcal/mol

Sequence: SAGGSAGVSTSKGSSVTTLKIDYKDDVVIKYSYNPSTGTVYTTVIDPETGNPVTVETYSVSPDVPLSAGGSA [r15_425_JUSTAS]
- folding stability dG unfold [1]: 1.26 ± 0.084 kcal/mol
- folding stability dG unfold [2]: 0.649 ± 0.014 kcal/mol
- folding stability dG unfold [3]: 1.02 ± 0.037 kcal/mol

Sequence: SAGGSAIIVIEIEMGGKPVPIMIPIPPNMPPEDAREEIKELAKQEVRDPDGKPVRVKIEVIPPPPESAGGSA [r15_246_TrROS]
- folding stability dG unfold [1]: 0.945 ± 0.031 kcal/mol
- folding stability dG unfold [2]: 0.163 ± 0.059 kcal/mol
- folding stability dG unfold [3]: 0.626 ± 0.11 kcal/mol

Sequence: SAGGSAIKVSTSPSDVSVSKVPLPNGETLTIEVSSNGETTVTKTSPTPGTPTTTTVPGASVEELLESAGGSA [r15_406_JUSTAS]
- folding stability dG unfold [1]: 0.974 ± 0.02 kcal/mol
- folding stability dG unfold [2]: 0.331 ± 0.034 kcal/mol
- folding stability dG unfold [3]: 0.762 ± 0.031 kcal/mol

Sequence: SAGGSAIPGMPIKEIARALQDKFPPGKPPQIKIRNKNGETKTFEPNKTIDDIPMDGVVEIEIEFRPSAGGSA [r15_50_TrROS]
- folding stability dG unfold [1]: 0.0124 ± 0.075 kcal/mol
- folding stability dG unfold [2]: -0.52 ± 0.62 kcal/mol
- folding stability dG unfold [3]: 0.0509 ± 0.19 kcal/mol

Sequence: SAGGSAITIEVTMNPNGYMGIRLRDPGNGEEIQIPFPMEPGQNPEDVRNWAREIVDELKKDGWRIYSAGGSA [r15_1022_TrROS]
- folding stability dG unfold [1]: 1.76 ± 0.11 kcal/mol
- folding stability dG unfold [2]: 1.28 ± 0.019 kcal/mol
- folding stability dG unfold [3]: 1.59 ± 0.038 kcal/mol

Sequence: SAGGSAKDEKVVVIVRREVRLRSRPKVDLGEGNPRVEFESSVEVRVPFLVLPEDDPVARELRELEGSAGGSA [r15_470_TrMRF]
- folding stability dG unfold [1]: -0.255 ± 0.24 kcal/mol
- folding stability dG unfold [2]: -0.46 ± 0.21 kcal/mol
- folding stability dG unfold [3]: -0.26 ± 0.1 kcal/mol

Sequence: SAGGSAKELIIKIKIKVKVNGKTYEIEIEIKAESIEEAIEAIKKKLEEEGLEIEIVEIEIIPKEELSAGGSA [r15_165_TrROS_Hall]
- folding stability dG unfold [1]: 3.08 ± 0.081 kcal/mol
- folding stability dG unfold [2]: 3 ± 0.086 kcal/mol
- folding stability dG unfold [3]: 2.99 ± 0.1 kcal/mol

Sequence: SAGGSAKEWVWVISIKYRYPNGEPLAPIPIMIPPDDPEIDIDEIADEIARKHGLDEIEVNIHPIPVSAGGSA [r15_333_TrROS]
- folding stability dG unfold [1]: 2.03 ± 0.12 kcal/mol
- folding stability dG unfold [2]: 1.59 ± 0.052 kcal/mol
- folding stability dG unfold [3]: 1.9 ± 0.14 kcal/mol

Sequence: SAGGSAKFKLEATPLEDGTLIIPIEIEVTVEKPFPDPNGIPKIKPVKKKFRFLIIKDGDEIKIFLGSAGGSA [r15_883_TrMRF]
- folding stability dG unfold [1]: 2.66 ± 0.097 kcal/mol
- folding stability dG unfold [2]: 1.59 ± 0.089 kcal/mol
- folding stability dG unfold [3]: 2.31 ± 0.23 kcal/mol

Sequence: SAGGSAKIDIEVDPEDGYIRIKLEVQHNDEPVKATMWYPLPDDGMFIRIRFDMPNGKIEEIETIPPSAGGSA [r2_331_TrROS]
- folding stability dG unfold [1]: 4.07 ± 0.12 kcal/mol
- folding stability dG unfold [2]: 2.69 ± 0.14 kcal/mol
- folding stability dG unfold [3]: 3.91 ± 0.27 kcal/mol
